B1: diabody-Fc-diabody FZD4 CM0199 (bispecific antibody)
chain 1: EFEVQLVESGGGLVQPGGSLRLSCAASGFNSSFYFMHWVRQAPGKGLEWVATVYPYLDYTYYADSVKGRFTISADTSKNTAYLQMNSLRAEDTAVYYCARAFPGSYHPMDYWGQGTLVTVSSGGGGSDIQMTQSPSSLSASVGDRVTITCRASQSVSSAVAWYQQKPGKAPKLLIYSASSLYSGVPSRFSGSRSGTDFTLTISSLQPEDFATYYCQQSSYSLITFGQGTKVEIKLEDKTHTKVEPKTSDKTHTCPPCPAPELLGGPSVFLFPPKPKDTLMISRTPEVTCVVVDVSHEDPEVKFNWYVDGVEVHNAKTKPREEQYNSTYRVVSVLTVLHQDWLNGKEYKCKVSNKALPAPIEKTISKAKGQPREPMVFDLPPSREEMTKNQVSLWCMVKGFYPSDIAVEWESNGQPENNYKTTPPVLDSDGSFFLYSKLTVDKSRWQQGNVFSCSVMHEALHNHYTQKSLSLSPGKSGSETPGTSESATPESGGGEVQLVESGGGLVQPGGSLRLSCAASGFNFSSSSIHWVRQAPGKGLEWVASISSSYGYTYYADSVKGRFTISADTSKNTAYLQMNSLRAEDTAVYYCARGGSGVSHYGSVYYSWWALDYWGQGTLVTVSSGGGGSDIQMTQSPSSLSASVGDRVTITCRASQSVSSAVAWYQQKPGKAPKLLIYSASSLYSGVPSRFSGSRSGTDFTLTISSLQPEDFATYYCQQASYAPITFGQGTKVEIK
chain 2: EFEVQLVESGGGLVQPGGSLRLSCAASGFNSSFYFMHWVRQAPGKGLEWVATVYPYLDYTYYADSVKGRFTISADTSKNTAYLQMNSLRAEDTAVYYCARAFPGSYHPMDYWGQGTLVTVSSGGGGSDIQMTQSPSSLSASVGDRVTITCRASQSVSSAVAWYQQKPGKAPKLLIYSASSLYSGVPSRFSGSRSGTDFTLTISSLQPEDFATYYCQQSSYSLITFGQGTKVEIKLEDKTHTKVEPKSSDKTHNCPPCPAPELLGGPSVFLFPPKPKDTLMISRTPEVTCVVVDVSHEDPEVKFNWYVDGVEVHNAKTKPREEQYNSTYRVVSVLTVLHQDWLNGKEYKCKVSNKALPAPIEKTISKAKGQPREPQVYTLPPIRELMTSNQVSLSCAVKGFYPSDIAVEWESNGQPENNYKTTPPVLDSDGSFFLVSKLTVDKSRWQQGNVFSCSVMHEALHNHYTQKSLSLSPGKSGSETPGTSESATPESGGGEVQLVESGGGLVQPGGSLRLSCAASGFNLSYYYMHWVRQAPGKGLEWVASIYSSYGYTYYADSVKGRFTISADTSKNTAYLQMNSLRAEDTAVYYCARWSHVSGHYSGMDYWGQGTLVTVSSGGGGSDIQMTQSPSSLSASVGDRVTITCRASQSVSSAVAWYQQKPGKAPKLLIYSASSLYSGVPSRFSGSRSGTDFTLTISSLQPEDFATYYCQQSSYSLITFGQGTKVEIK
notes: Diabody-Fc-diabody format FZD agonist that recognizes FZD4 and LRP5; also called F4L5.13
B2: FZD4 Agonist ANT16 (bispecific antibody, human IgG1, kappa, N297G)
heavy 1: EVQLVESGGGLVQPGGSLRLSCAASGFDFTAYAMHWVRQAPGKGLEWVASIYPSGGYTAYADSVKGRFTISADTSKNTAYLQMNSLRAEDTAVYYCARRSYYFALDYWGQGTLVTVSSGGGGSDIQMTQSPSSLSASVGDRVTITCRASQSVSSAVAWYQQKPGKAPKLLIYSASSLYSGVPSRFSGSRSGTDFTLTISSLQPEDFATYYCQQYWAYYSPITFGQGTKVEIKGGGGSGGGGSEPKTSDKTHTCPPCPAPELLGGPSVFLFPPKPKDTLMISRTPEVTCVVVAVSHEDPEVKFNWYVDGVEVHNAKTKPREEQYGSTYRVVSVLTVLHQDWLNGKEYKCKVSNKALPAPIEKTISKAKGQPREPMVFDLPPSREEMTKNQVSLWCMVKGFYPSDIAVEWESNGQPENNYKTTPPVLDSDGSFFLYSKLTVDKSRWQQGNVFSCSVMHEALHNHYTQKSLSLSPGKGGGSGGGSGGGSGGGSGSTGEVQLVESGGGLVQPGGSLRLSCAASGFTLSSYSMHWVRQAPGKGLEWVAYISSYYGYTYYADSVKGRFTISADTSKNTAYLQMNSLRAEDTAVYYCARPAPGHWGFDYWGQGTLVTVSSASTKGPSVFPLAPSSKSTSGGTAALGCLVKDYFPEPVTVSWNSGALTSGVHTFPAVLQSSGLYSLSSVVTVPSSSLGTQTYICNVNHKPSNTKVDKKVEPKSCDKTHT
heavy 2: EVQLVESGGGLVQPGGSLRLSCAASGFDFSSSSIHWVRQAPGKGLEWVASISSSYGYTYYADSVKGRFTISADTSKNTAYLQMNSLRAEDTAVYYCARSWAMDYWGQGTLVTVSSGGGGSDIQMTQSPSSLSASVGDRVTITCRASQSVSSAVAWYQQKPGKAPKLLIYSASDLYSGVPSRFSGSRSGTDFTLTISSLQPEDFATYYCQQYAGAGLITFGQGTKVEIKGGGGSGGGGSEPKSSDKTHTCPPCPAPELLGGPSVFLFPPKPKDTLMISRTPEVTCVVVAVSHEDPEVKFNWYVDGVEVHNAKTKPREEQYGSTYRVVSVLTVLHQDWLNGKEYKCKVSNKALPAPIEKTISKAKGQPREPQVYTLPPIRELMTSNQVSLSCAVKGFYPSDIAVEWESNGQPENNYKTTPPVLDSDGSFFLVSKLTVDKSRWQQGNVFSCSVMHEALHNHYTQKSLSLSPGKGGGSGGGSGGGSGGGSGSTGEVQLVESGGGLVQPGGSLRLSCAASGFTLSSYSMHWVRQAPGKGLEWVAYISSYYGYTYYADSVKGRFTISADTSKNTAYLQMNSLRAEDTAVYYCARPAPGHWGFDYWGQGTLVTVSSASTKGPSVFPLAPSSKSTSGGTAALGCLVKDYFPEPVTVSWNSGALTSGVHTFPAVLQSSGLYSLSSVVTVPSSSLGTQTYICNVNHKPSNTKVDKKVEPKSCDKTHT
light: DIQMTQSPSSLSASVGDRVTITCRASQSVSSAVAWYQQKPGKAPKLLIYSASSLYSGVPSRFSGSRSGTDFTLTISSLQPEDFATYYCQQWYYAPITFGQGTKVEIKRTVAAPSVFIFPPSDEQLKSGTASVVCLLNNFYPREAKVQWKVDNALQSGNSQESVTEQDSKDSTYSLSSTLTLSKADYEKHKVYACEVTHQGLSSPVTKSFNRGEC
notes: Diabody-Fc-Fab format: bispecific LRP5 diabody at the N-terminus, two FZD4 Fabs at the C-terminus
B3: FZD4 Agonist ANT18 (bispecific antibody)
heavy 1: EVQLVESGGGMVQPGGSLRLSCAASGFNFSSSSIHWVRQAPGKGLEWVASISSSYGYTYYADSVKGRFTISADTSKNTAYLQMNSLRAEDTAVYYCARGGSGVSHYGSVYYSWWALDYWGQGTLVTVSSGGGGSDIQMTQSPSSLSASVGDRVTITCRASQSVSSAVAWYQQKPGKAPKLLIYSASSLYSGVPSRFSGSRSGTDFTLTISSLQPEDFATYYCQQASYAPITFGQGTKVEIKGGGGSGGGGSEPKTSDKTHTCPPCPAPELLGGPSVFLFPPKPKDTLMISRTPEVTCVVVAVSHEDPEVKFNWYVDGVEVHNAKTKPREEQYGSTYRVVSVLTVLHQDWLNGKEYKCKVSNKALPAPIEKTISKAKGQPREPMVFDLPPSREEMTKNQVSLWCMVKGFYPSDIAVEWESNGQPENNYKTTPPVLDSDGSFFLYSKLTVDKSRWQQGNVFSCSVMHEALHNHYTQKSLSLSPGKGGGSGGGSGGGSGGGSGSTGEVQLVESGGGLVQPGGSLRLSCAASGFTLSSYSMHWVRQAPGKGLEWVAYISSYYGYTYYADSVKGRFTISADTSKNTAYLQMNSLRAEDTAVYYCARPAPGHWGFDYWGQGTLVTVSSASTKGPSVFPLAPSSKSTSGGTAALGCLVKDYFPEPVTVSWNSGALTSGVHTFPAVLQSSGLYSLSSVVTVPSSSLGTQTYICNVNHKPSNTKVDKKVEPKSCDKTHT
heavy 2: EVQLVESGGGLVQPGGSLRLSCAASGFNLSYYYMHWVRQAPGKGLEWVASIYSSYGYTYYADSVKGRFTISADTSKNTAYLQMNSLRAEDTAVYYCARWSHVSGHYSGMDYWGQGTLVTVSSGGGGSDIQMTQSPSSLSASVGDRVTITCRASQSVSSAVAWYQQKPGKAPKLLIYSASSLYSGVPSRFSGSRSGTDFTLTISSLQPEDFATYYCQQSSYSLITFGQGTKVEIKGGGGSGGGGSEPKSSDKTHTCPPCPAPELLGGPSVFLFPPKPKDTLMISRTPEVTCVVVAVSHEDPEVKFNWYVDGVEVHNAKTKPREEQYGSTYRVVSVLTVLHQDWLNGKEYKCKVSNKALPAPIEKTISKAKGQPREPQVYTLPPIRELMTSNQVSLSCAVKGFYPSDIAVEWESNGQPENNYKTTPPVLDSDGSFFLVSKLTVDKSRWQQGNVFSCSVMHEALHNHYTQKSLSLSPGKGGGSGGGSGGGSGGGSGSTGEVQLVESGGGLVQPGGSLRLSCAASGFTLSSYSMHWVRQAPGKGLEWVAYISSYYGYTYYADSVKGRFTISADTSKNTAYLQMNSLRAEDTAVYYCARPAPGHWGFDYWGQGTLVTVSSASTKGPSVFPLAPSSKSTSGGTAALGCLVKDYFPEPVTVSWNSGALTSGVHTFPAVLQSSGLYSLSSVVTVPSSSLGTQTYICNVNHKPSNTKVDKKVEPKSCDKTHT
light: B2 light
notes: Diabody-Fc-Fab format

Molecular target: T1, FZD4 recombinant extracellular domain, Fc fusion (FZD-Fc) (UniProt Q9ULV1 37-180)
T1 construct: extracellular domain; also called FZD4 ECD; not shown: Fc part of the FZD-Fc protein
T1 sequence (looked up): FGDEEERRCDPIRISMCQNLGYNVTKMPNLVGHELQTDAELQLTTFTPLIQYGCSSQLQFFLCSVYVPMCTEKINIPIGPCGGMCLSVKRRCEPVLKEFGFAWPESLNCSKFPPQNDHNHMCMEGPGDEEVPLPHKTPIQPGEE
Experiment: BLI (Octet), FZD-Fc captured on AHQ sensors, agonist in solution; apparent affinity

Binder	Kd [pM]
B1	700
B2	600
B3	2600

From patent US20250270332A1 (ANTLERA THERAPEUTICS, published 2025)
